Assay results from article PMC8369199.

Target: cetuximab (human)
Experiment: BLI; cetuximab (20 µg/ml) immobilised on Fab2G sensors; scFv hFc4 25 to 200 nM in kinetics buffer; 1:1 Langmuir model

B1: humanized scFv hFc4 (scFv, V domains shown)
VH: EVQLLESGGGLVQPGGSLRLSCAASGFTFSSYAMNWVRQAPGKGLEFVAGINAAGSGANYAPAVKGRATISRDNSPNTVYLQMNSLRAEDTAVYYCAKGSGSCNHCGGGHGGMIDEWGQGTLVTVSS
VL: SYELMQPPSVSVSPGQTARITCSGGSSTYYGWYQQKPGQAPVTVIYWDDERPSGIPERFSGSSSGNTVTLTINGVQAEDEADYYCGGYDSSVGIFGGGTKLTVL
Kd: 20.5 nM
